Experimental data as given in patent US20210347873A1 (SHANGHAI PHARMAEXPLORER, published 2021).

T1: human APRIL protein (human, UniProt O75888 105-250, limits assumed)
T1 construct: Bought protein; also called recombinant APRIL protein
T1 sequence (looked up): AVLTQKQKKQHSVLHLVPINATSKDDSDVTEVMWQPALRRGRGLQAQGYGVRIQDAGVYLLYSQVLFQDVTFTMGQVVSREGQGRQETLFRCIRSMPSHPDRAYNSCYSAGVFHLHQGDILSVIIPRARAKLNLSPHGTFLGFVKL

B1: 8E7D9C7F5 (antibody, V domains shown)
VH: QVQLQQSGVELARPGASVKLSCKASGYTFTSYGISWVKQRTGQALEWIGEIYPRSGNTYYNEKFKGKATLTADKSSSTAYMELRSLTSEDSAVYFCARSGPITTLVATDYGMDYWGQGTSVTVSS
VL: DIVLTQSPASLAVSLGQRATISCRASKSVSTSSYSYMHWYQQKPGQPPKLLIKFASNLESGVPARFSGSGSGTDFTLNIHPVEEEDAATYYCQHSREFPYTFGGGTKLEIK
notes: Mouse hybridoma monoclonal antibody purified on Protein G
B2: 97A3C2H4 (antibody, V domains shown)
VH: EVKLVESGGGLVQPGGSLKLSCAASGFTFSTYTMSWVRQTPEKRLEWVAYISYGGGSTSYPDTVKGRFTISRDNAKNTLYLQMSSLKSEDTAIYYCTRHVTVVENSMDYWGQGTSVTVSS
VL: DILLTQSPDILSVSPGERVSFSCRASQSIGTSIHWYQQRTNGSPRLLIKYVSESFSGTPSRFSGSGSGTAFTLTINSVESEDIADYYCQQTHSWPWTFGGGTKLEIK
notes: as for B1
B3: 111D10D6G3 (antibody, V domains shown)
VH: QVQLQQPGAELVKPGASVKMSCKASGYTFTRHWITWVKQRPGQGLEWIGDIFPGSGSINYNEKFKSEATLTVEKSSSTAYMQLSSLTSEDSAVYYCARGDVDVWGTGTTVTVSS
VL: DIQMTQSPSSLSASLGERVSLTCRASQEIRGYLSWLQQKPNGTIKRLIYAASTLDSGVPKRFSATRSGSDFSLTISSLESEDFADYYCLQYASYPFTFGSGTKLEIK
notes: as for B1
B4: L9G7 (antibody, human IgG1, V domains shown)
VH: QIQLVQSGAEVKKPGASVKVSCKASGYTFTSYGISWVRQAPGQGLEWMGWISAYNGNTNYAQKLQGRVTMTTDTSTSTAYMELRSLRSDDTAVYYCARTYYDILTGYYYYGMDVWGQGTTVTVSS
VL: EIVLTQSPGTLSLSPGERATLSCRTSQSVDTYLAWYQQKPGQAPRLLIYDASNRATGIPARFSGSGSGTDFTLTISSLEPEDFAVYYCQQRSNWPLTFGGGTKVEIK
B5: 97A3C2H4 (antibody, V domains shown)
VH: B2 VH
VL: B2 VL
notes: Mouse hybridoma antibody purified on Protein G
B6: 111D10D6G3 (antibody, V domains shown)
VH: B3 VH
VL: B3 VL
notes: as for B5
B7: L1D12 (antibody, human IgG1, V domains shown)
VH: QVQLVQSGGGLVQPGGSLRLSCAASGFTVSSNYMSWVRQAPGKGLEWVSVIYSGGSTYYADSVKGRFTISRDNSKNTLYLQMNSLRAEDTAVYYCARGFHDILTGYGMDVWGQGTTVTVSS
VL: SSELTQDPAVSVALGQTVRITCQGDSLRNYYAGWYQQKPGQAPVLVIYGKNNRPSGIPDRFSGSSSGNTASLTITGTQAEDEADYYCSSRDNSGTHLVEFGGGTKLTVL
notes: also called LID12

The binders below were run against T2, biotinylated hBLyS-ECD (human, UniProt Q9Y275 134-285, biotinylated with Biotin-X-X-NHS (molar ratio 7:1); sites not stated) (assay: blocking ELISA: biotinylated hBLyS-ECD on coated BAFF R, antibody 100 nM).
T2 construct: also called biotinylated immunogen; BLyS protein
Protocol: BAFF R (purchased from R & D Systems) was aliquoted into 96-well ELISA plate at 50 ng per well, and the plate was sealed with plastic film and incubated overnight at 4° C. On the next day the plate was washed four times with the plate washing buffer [PBS buffer containing 0.05% (v/v) Tween20] and added with blocking solution [PBS buffer containing 0.05% (v/v) Tween20 and 1% (w/w) BSA], then blocked for 1 hour at room temperature. The blocking solution was removed and 50 μL per well of the lead antibodies prepared in Embodiment 1 and 2 were added followed by the addition of 50 μL per well of the biotinylated hBLyS-ECD prepared in Embodiment 2. After incubation for 1 hour at 37° C., the plate was washed four times with the plate washing buffer [PBS buffer containing 0.05% (v/v) Tween20]. 100 μL per well of HRP-labeled (horseradish peroxidase) avidin (purchased from Sigma) was added and incubated at 37° C. for 1 hour. The plate was then washed four times with the plate washing buffer [PBS buffer containing 0.05% (v/v) Tween20]. 100 μL of TMB substrate was aliquoted into each well and after incubation for 5 minutes at room temperature, then 100 μL of stop solution (1.0 N HCl) was aliquoted into each well. A₄₅₀ₙₘ values were read with an ELISA plate reader (SpectraMax 384plus, Molecular Device) and the results were shown in FIGS. 9A-9B and Table 15. It was shown in Table 15 that the binding of BLyS protein to its receptor BAFF R could be blocked by the BLyS antibody.

OD450 nm | Binder
0.11 OD450 nm | B1
0.107 OD450 nm | B2
0.605 OD450 nm | B3

What follows are binders tested against T3, biotinylated hBLyS-ECD (human, UniProt Q9Y275 134-285, biotinylated with Biotin-X-X-NHS (molar ratio 7:1), sites not stated) (assay: ELISA, biotinylated hBLyS-ECD captured on streptavidin; antibody 0 nM (blank)).
T3 construct: The hBLyS-ECD of Embodiment 1 after biotinylation (Embodiment 2); also called biotinylated immunogen; BLyS protein; not shown: His tag of the pCPC vector
Protocol: Streptavidin was first diluted to a final concentration of 1.0 μg/mL with PBS, and then 50 μL of diluted streptavidin per well was aliquoted into 96-well ELISA plate, which was subsequently sealed with plastic film and incubated at 4° C. overnight. On the next day the plate was washed four times with the plate washing buffer [PBS buffer containing 0.05% (v/v) Tween20] and added with the blocking solution [PBS buffer containing 0.05% (v/v) Tween20 and 1% (w/w) BSA] and blocked for 2 hours at 37° C. The blocking solution was removed, the biotinylated hBLyS-ECD prepared in Embodiment 2 was diluted with PBS to a final concentration of 50 ng/mL and then aliquoted into the 96-well ELISA plate at 50 μL per well and incubated for 1 hour at 37° C. After rinsing the plate four times with the plate washing buffer [PBS buffer containing 0.05% (v/v) Tween20], 100 μl of the purified lead antibody harvested in Embodiment 1 and 2 was pipetted into each well. After incubation for 1 hour at 37° C., the plate was rinsed four times with the plate washing buffer [PBS buffer containing 0.05% (v/v) Tween20]. HRP-labeled (horseradish peroxidase) secondary antibody (purchased from Sigma) was added in and incubated at 37° C. for 1 hour. The plate was then rinsed four times with the plate washing buffer [PBS buffer containing 0.05% (v/v) Tween20]. 100 μL of TMB substrate was aliquoted into each well and after incubation for 5 minutes at room temperature, 100 μL of stop solution (1.0 N HCl) was aliquoted into each well. A₄₅₀ₙₘ values were read via an ELISA plate reader (SpectraMax M5e purchased from Molecular Devices) and the results were shown in FIGS. 5A-5B and Table 10.

OD450 nm | Binder
0.071 | B4
0.0603 | B5
0.0617 | B6
0.11 | B7

Each binder was assayed against T4, human BLyS (full length, arginine 132 mutated to histidine) on CHO-K1 cells (human, UniProt Q9Y275 1-285) (assay: flow cytometry (FACS) on CHO-K1 hBLyS cells, Alexa 488 secondary antibody).
T4 construct: also called hBLyS; CHO-K1 hBLyS
Protocol: The medium was aspirated completely, and the cells were rinsed once with PBS buffer (purchased from Invitrogen) and then treated with cell dispersion solution (TrypLE™ Express Enzyme, purchased from Life technology) and collected. The detailed steps are as follows: the cells were rinsed once with PBS buffer, after counting, the cells were diluted to 2×10⁶ cells/ml with PBS buffer, blocked with 2% (w/w) fetal bovine serum and incubated on ice for 30 minutes. 200 μL of which per well was aliquoted into a 96-well FACS plate and centrifuged at 2000 rpm at 4° C., then each 100 μL of the lead antibodies obtained from Embodiment 1 and 2 were aliquoted into each well and incubated on ice for 1 hour. […] After centrifuged and rinsed 3 times with FACS buffer, cells were suspended with 200 μL of FACS buffer and the results were detected and analyzed by FACS (FACS Calibur, purchased from BD). It was shown in Tables 12-13 that the lead antibody could bind to human BLyS protein on the cell surface and the lead antibody could cross-react with cynomolgus BLyS. The data in the table is MFI, the average fluorescence intensity of the cell population.

T4 sequence (Q9Y275 other isoform, or with tags, fused parts or gaps limits assumed, change not shown): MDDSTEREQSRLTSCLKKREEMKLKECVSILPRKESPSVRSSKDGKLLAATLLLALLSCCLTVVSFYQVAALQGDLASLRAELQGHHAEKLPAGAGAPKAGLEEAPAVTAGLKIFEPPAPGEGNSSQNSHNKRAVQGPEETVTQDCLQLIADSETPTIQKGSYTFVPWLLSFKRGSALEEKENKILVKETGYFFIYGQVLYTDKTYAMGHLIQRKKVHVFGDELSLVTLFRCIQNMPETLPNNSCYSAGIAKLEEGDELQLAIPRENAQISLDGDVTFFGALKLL

EC50 (read off the curve) | Binder
~0.3 nM | B4
~0.3 nM | B5
~0.1 nM | B6
~0.2 nM | B7

The binders below were run against T1, human APRIL protein (assay: ELISA: APRIL coated at 1.0 µg/mL, antibody titrated, HRP secondary antibody).
Protocol: To test whether the BLyS antibody cross-reacted with human APRIL protein, APRIL protein (purchased from R & D Systems) was first diluted to a final concentration of 1.0 μg/mL with PBS, and then 50 μL of which per well was aliquoted into a 96-well ELISA plate, and the plate was subsequently sealed with plastic film and incubated at 4° C. overnight. On the next day the plate was rinsed four times with the plate washing buffer [PBS buffer containing 0.0500 (v/v) Tween20] and a blocking solution [PBS buffer containing 0.05 (v/v) Tween20 and 1 (w/w) BSA] was added, then the protein was blocked at 37° C. for 2 hours. The blocking solution was removed and 100 μL per well of the lead antibodies prepared in Embodiment 1 and 2 were added in. After incubation for 1 hour at 37° C., the plate was rinsed four times with the plate washing buffer [PBS buffer containing 0.05 (v/v) Tween20]. HRP-labeled (horseradish peroxidase) secondary antibody (purchased from Sigma) was added in and incubated at 37° C. for 1 hour. The plate was then rinsed four times with the plate washing buffer [PBS buffer containing 0.050 (v/v) Tween20]. 100 μL of TMB substrate was aliquoted into each well and after incubation at room temperature for 5 minutes, 100 μL of stop solution (1.0 N HCl) was aliquoted into each well. A₄₅₀ₙₘ values were read via an ELISA plate reader (SpectraMax M5e purchased from Molecular Devices) and the results were shown in FIGS. 6A-6B and Table 11. […] As used herein, the IgG control is human IgG and the data in the table is GD number at 450 nm.

binding result | Binder
no binding (tested: 66.7 nM) | B4
no binding (tested: 66.7 nM) | B5
no binding (tested: 66.7 nM) | B6
no binding (tested: 66.7 nM) | B7
